The source of these data is the supplement of paper PMC7877785.

± gives the uncertainty stated by the source.

The series is described as follows: self-splicing fitness, log relative to wild type (ln ratio); higher = more splicing; Tetrahymena group I intron in knt gene, E. coli kanamycin selection, DiMSum; sequences stand for … in CUCUCU…GGAGGGAAAAGUUAUCAGGCAUGCACCUGGUAGCUAGUCUUUAAACCAAUAGAUUGCAUCGGUUUAAAAGGCAAGACCGUCAAAUUGCGGGAAAGGGGUCAACAGCCGUUCAGUACCAAGUCUCAGGGGAAACUUUGAGAUGGCCUUGCAAAGGGUAUGGUAAUAAGCUGACGGACAUGGUCCUAACCACGCAGCCAAGUCCUAAGUCAACAGAUCUUCUGUUGAUAUGGAUGCAGUUCACAGACUAAAUGUCGGUCGGGGAAGAUGUAUUCUUCUCAUAAGAUAUAGUCGGACCUCUCCUUAAUGGGAGCUAGCGGAUGAAGUGAUGCAACACUGGAGCCGCUGGGAACUAAUUUGUAUGCGAAAGUAUAUUGAUUAGUUUUGGAGUACUCGUGGUCG
The gist of the method: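 Library with all eight P1ex-region intron nucleotides randomised, intron inside the knt kanamycin-resistance gene on pET-22b(+), in E. coli BL21(DE3). Cells grew overnight at 37°C or 30°C on LB agar with or without 25 μg/mL kanamycin (plus 100 μg/mL carbenicillin, 50 μM IPTG, 0.2% rhamnose), in six replicate transformations. Pooled colonies were amplicon-sequenced on Illumina HiSeq 2500. DiMSum fitness is the error-weighted combination of wild-type-normalised replicate fold changes, kanamycin versus none.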

Consider AUGAAGCAAUAUUACGCACG, for which the “self-splicing fitness (ln)” value was -1.09 ± 0.1 (30 °C) and 0.541 ± 0.14 (37 °C). The like results for UUGCAGCAAUAUUACGUUGU were, in that order, -3.23 ± 0.2 and -2.81 ± 0.2. The like results for UCUGAGCAAUAUUACGUGUU were, in that order, -3.93 ± 0.27 and -2.55 ± 0.23. The like results for CAUAAGCAAUAUUACGAGCA were, in that order, -3.98 ± 0.37 and -1.77 ± 0.2. With AACUAGCAAUAUUACGGCAC, the “self-splicing fitness (ln)” value is -0.766 ± 0.079 (30 °C) and -0.192 ± 0.11 (37 °C). For CGCGAGCAAUAUUACGGCUA the same measures were -1.23 ± 0.15 and -1.98 ± 0.16.

Take AUCUAGCAAUAUUACGCUUG: the “self-splicing fitness (ln)” value reads like this: (30 °C) -1.85 ± 0.12; (37 °C) -1.36 ± 0.14.

GGCAAGCAAUAUUACGUUCU: the “self-splicing fitness (ln)” value (30 °C) was -0.68 ± 0.089 and the “self-splicing fitness (ln)” value (37 °C) was 0.436 ± 0.11. The like results for UCCGAGCAAUAUUACGGAGA were, in that order, -1.83 ± 0.18 and -1.7 ± 0.27.

As to CACUAGCAAUAUUACGACUC, the “self-splicing fitness (ln)” value is -1.68 ± 0.21 (30 °C) and -2.63 ± 0.36 (37 °C). The like results for AGUUAGCAAUAUUACGUUGG were, in that order, -2.67 ± 0.19 and -2.3 ± 0.21. As to AAGCAGCAAUAUUACGCAUU, the “self-splicing fitness (ln)” value by setting is: (30 °C) -2.49 ± 0.12; (37 °C) -1.23 ± 0.12. For UAAGAGCAAUAUUACGCGUC, the “self-splicing fitness (ln)” value is -3.81 ± 0.25 (30 °C) and -2.29 ± 0.23 (37 °C). For UGUCAGCAAUAUUACGAUUU the same measures were -0.0817 ± 0.061 and 0.461 ± 0.082.

On to UGCGAGCAAUAUUACGUGAA, for which the “self-splicing fitness (ln)” value (37 °C) was -2.32 ± 0.16.

For the sequence AUGCAGCAAUAUUACGGGAG, the “self-splicing fitness (ln)” value is -3.13 ± 0.17 (30 °C) and -2.11 ± 0.13 (37 °C). With GCCAAGCAAUAUUACGCGGG, the “self-splicing fitness (ln)” value (30 °C) is -3.54 ± 0.23 and the “self-splicing fitness (ln)” value (37 °C) is -2.37 ± 0.18. For UCUUAGCAAUAUUACGUAGA the same measures were -1.15 ± 0.21 and -0.474 ± 0.18.

Take CUUUAGCAAUAUUACGGAUA: the “self-splicing fitness (ln)” value is, setting by setting: (30 °C) -3.21 ± 0.42; (37 °C) -2.7 ± 0.34. For CGACAGCAAUAUUACGCGAU the same measures were -2.8 ± 0.22 and -2.46 ± 0.28.

Regarding UUAGAGCAAUAUUACGCACC, the “self-splicing fitness (ln)” value is, setting by setting: (30 °C) -3.79 ± 0.33; (37 °C) -2.04 ± 0.4. For GCUUAGCAAUAUUACGUUCG, the “self-splicing fitness (ln)” value by setting is: (30 °C) -0.857 ± 0.095; (37 °C) -0.972 ± 0.11. As for UAUUAGCAAUAUUACGUCUU, the “self-splicing fitness (ln)” value is -1.86 ± 0.14 (30 °C) and -0.681 ± 0.15 (37 °C). In the case of GGUCAGCAAUAUUACGGGUA, the “self-splicing fitness (ln)” value by setting is: (30 °C) -1.57 ± 0.12; (37 °C) -0.686 ± 0.1. For GGGCAGCAAUAUUACGGUCC the same measures were -4.03 ± 0.46 and -2.14 ± 0.28. For CUGUAGCAAUAUUACGGCUU the same measures were -3.72 ± 0.25 and -2.86 ± 0.3.

CCGGAGCAAUAUUACGGAGG: the “self-splicing fitness (ln)” value (37 °C) was -2.35 ± 0.25. Turning to CUCAAGCAAUAUUACGAGUC, the “self-splicing fitness (ln)” value is, setting by setting: (30 °C) -3.49 ± 0.21; (37 °C) -3.23 ± 0.47. For CGCGAGCAAUAUUACGCCGU the same measures were -3.93 ± 0.47 and -3.01 ± 0.4. The like results for AAAGAGCAAUAUUACGUCCG were, in that order, -3.14 ± 0.21 and -1.86 ± 0.35.

As to GUAAAGCAAUAUUACGUACC, the “self-splicing fitness (ln)” value (30 °C) was -3.89 ± 0.2 and the “self-splicing fitness (ln)” value (37 °C) was -2.55 ± 0.2. The like results for CUACAGCAAUAUUACGAAGU were, in that order, -4.24 ± 0.29 and -2.52 ± 0.19. For GAUCAGCAAUAUUACGGCGG the same measures were -2.43 ± 0.13 and -2.06 ± 0.17.

Turning to UCUCAGCAAUAUUACGACCA, the “self-splicing fitness (ln)” value is -0.757 ± 0.13 (30 °C) and -0.615 ± 0.14 (37 °C). For AUGUAGCAAUAUUACGCUAG the same measures were -1.61 ± 0.21 and -0.5 ± 0.22. Consider GGCAAGCAAUAUUACGCCCC, for which the “self-splicing fitness (ln)” value (37 °C) is -1.27 ± 0.35. For UCAGAGCAAUAUUACGCCUG, the “self-splicing fitness (ln)” value (30 °C) is -3.63 ± 0.3.

Consider AGAUAGCAAUAUUACGUAUG, for which the “self-splicing fitness (ln)” value is -2.57 ± 0.15 (30 °C) and -2.3 ± 0.17 (37 °C).
